Measurements taken from the DeepSol protein solubility set.

assay: soluble on expression in E. coli; label from the status in PepcDB or PDB records

Question: For “AKKIGIEQSLSDVEAALKEKGYDVVMMKSPADAQGCDCCVVTGLDNNVQGIADTVTQAPVITASGMTAEEICSEVESRIQ”, which “soluble on expression in E. coli” value is on record?
Answer: not soluble

Question: Which “soluble on expression in E. coli” value does the source give for “MATSAMFILDLKGKTIISRNYRGDIDMTAIDKFIHLLMEKEEEGSAAPVLTYQDTNFVFIKHTNIYLVSACRSNVNVTMILSFLYKCVEVFSEYFKDVEEESVRDNFVVIYELLDEMMDFGFPQTTESRILQEYITQEGQKLISAPRPPMAVTNAVSWRSEGIKYRKNEVFLDVIESVNMLASANGTVLQSEIVGSVKMRVYLTGMPELRLGLNDKVLFEGSGRGKSKSVELEDVKFHQCVRLSRFDTDRTISFIPPDGAFELMSYRLTTVVKPLIWIETSIERHSHSRVSFIIKAKSQFKRRSTANNVEIIIPVPSDADSPKFKTSIGSVKYTPEQSAFVWTIKNFPGGKEYLLTAHLSLPSVMSEESEGRPPIKVKFEIPYFTTSGIQVRYLKIIEKSGYQALPWVRYITQNGEYEMRMK” here?
Answer: not soluble

Question: Which “soluble on expression in E. coli” value does the source give for “MKRMLFIFVSSFLLIALAACAQGKETKSELDYDQTKKMIVDILKTDQGKKAIQDVLTDEKMKQALILDETVVKKTIEDAMVSDKGQQFWEKLFKDPEFSSKFAKSMGKEQTQLMKTLLKDPEYQAGVIEIMKNPEVEKMMLQTMKSKEYRQYLQQVLTETAESPLFQAKMIDIISKGVQKAEKGGSGKKEAGGDGGSQGEKKEEQ” here?
Answer: not soluble

Question: For “LVQGPSLIGIHANEREDIETKKFVNWYLNTKVQWEENSIKTPAEYVADKASYLLPFKNRLNNTNSYNEFVKTAVSQFADKNVTKFAEPADFLSNKVRD”, which “soluble on expression in E. coli” value is on record?
Answer: not soluble

Question: With “MASTQCVNIQKRDIIRGASDVSWFDVLLEKGACVTISAQDKPSVDLWLDDVIQESLIEGRHYCTKASTSDLKADARCPTQGEATMREEYLDGYVCKRSFSDRGWGNGCGLFGKGSIVGCAKATCGANDIIKSYSYDSPKVKYVIGAEVHQGKLLTNNSTDRIVKTTFTAESEKHTITIADYGSMDFTCRVVASAELSNIRMIELDGHMFNVHEDWLSDLPLPSKISGGSWHGMDRLVVFKEPHAVKMEIQACGDQRPAVFKSLVKAEEVTKTSNSYHLTGGHVDCRVSTLNLRMKGLTYQMCSSSFVWHKRPVATQHGTVAMEVKYKGSDAPCRIPVSVEKEGYNGKNFGNLITANPFAANNEAVVFLELEAPLGVSTIKVGGAVFQWKQEGSSIGKALEHHHHHH” as the sequence, how does the “soluble on expression in E. coli” value read?
Answer: not soluble

Question: Which “soluble on expression in E. coli” value does the source give for “GPGSMEETVEHHFVEPNNISHMERHTAYATGPLDIDGGSSDSNCVLTAPSMTVTTSADGSSFVQLTEEDMQLMPEEQSISGGSYDETRTPESVNVVNS” here?
Answer: not soluble

Question: With “MGSDKIHHHHHHMKVCILGATGRVGSNIIKLALKDSVEVTALARDSSRVEINHERLRVIEGNVLNENDIKKAIEGSDIVISALGTDQNGTLAKSMPQIIKKMEEEGVRKIITIGTAGILQARTNLNLYRFQSTESKRKSTTAAEEHLAAYKILSSSNLCWTVVCPTHLIDGDVTGIYRTEKDVLPEGGAKITVGDTAQFTWNLCSKNKYENSRVGISY” as the sequence, how does the “soluble on expression in E. coli” value read?
Answer: not soluble

Question: Which “soluble on expression in E. coli” value does the source give for “MTDRYSFSLTTFSPSGKLGQIDYALTAVKQGVTSLGIKATNGVVIATEKKSSSPLAMSETLSKVSLLTPDIGAVYSGMGPDYRVLVDKSRKVAHTSYKRIYGEYPPTKLLVSEVAKIMQEATQSGGVRPFGVSLLIAGHDEFNGFSLYQVDPSGSYFPWKATAIGKGSVAAKTFLEKRWNDELELEDAIHIALLTLKESVEGEFNGDTIELAIIGDENPDLLGYTGIPTDKGPRFRKLTSQEINDRLEAL” here?
Answer: soluble

Question: For “MREPIVAIATPYGESAIGIVRLSGKGVLDLVKKFFKTKREIKPRYAHFGVLYDDKGEELDEGVLIYYKAPHSYTGEDMVELNLHGNPRILKRALELFVNAGARLAEPGEFTKRAFLNGKLDLTQAEAVAELISAKTELARKVALKQLHGELSKHIRPLRETLLELLAYVEADIEFAEEDIPTLTKEQVIQMVDKVIEGINELLKTAKTGKFIREGVKLAIVGRPNVGKSSLFNALLKEERAIVTDIAGTTRDFIEETLQIKGVPVRLVDTAGIRETKDLVERIGVERSKQKVKEADLILFVIDASQEITEEDLRIYEEIKEKDHIVVANKVDLGIRANLEKFKGEKIVKVSALKGTGLEELSEEILKKVGANLEESVNIYISVRHETLLKKAKEVLERFKEEFREKDISPEIAMLDLREASDYLGEILGEITTEDLLGKIFSTFCIGK”, which “soluble on expression in E. coli” value is on record?
Answer: soluble

Question: For “MVPSNAESQSVVVIGAGIGGLTTAALLAQQGYRVKVYEQAAIVGGCASTFRRRGFIFDVGATQVAGLEPGGIHHRIFRQLQVDLPEATLCDPACAVFLPGEKQPINVWHDPERWQREREQQFPGSGRFWQLLQTLFQISWRFQGRDPVLPPRSMWDLGQLLGALRPDTLLTAPFVPLTVGDTLRLLGLGSDQRLKTFLDLQLKLYSQVGADETALLYAATALSVSQGPQGLWHLQGSMQTLGDRLVEALKNHGGELFCSQRVEQIHCGQGYVEGVTVRDVRSGEVRQEKAQQVVANLTVQNLLQALDQPLPGYQKRVTNLPSGSGAFVIYLGVKEDAIPPDCAPHLQFLYDHQGPIGENNSLFVSVSKPGDGRAPRGCRTVIASSFTDVAPWWNASREQYQALKESYTTTAISRLGEYFNLDESTIVHQESATPRTFDRYTARDQGIVGGVGQRLTTFGPFGFAPRTPIRNLWLVGDSVHPGEGTAGVSYSALTIARQICASGATNSLEHHHHHH”, which “soluble on expression in E. coli” value is on record?
Answer: not soluble

Question: Which “soluble on expression in E. coli” value does the source give for “SLIENVDAQADSSWPHRGQIEVRNLTVKYTEAGHAVLKNLSFSAEGRQRVGILGRTGSGKSSLFNALLKLVYTDGEISIDGVNWNKMPLEKWRKAFGVVPQKVFIFTGPLRMNLDPYGCHSDEELWRVAEEVGLKTVIEQFPDKLDFQLEYGGYVLSNGHKQLICLARSILSGARILLLDEPSAHLDPVTIKVLKKTLRQSFSTCTILLSEAKVEPLLECDSFLMMDKGQVKTYDSIQKLLNETSDLKQAISPAE” here?
Answer: soluble

Question: With “MKKYSFPVTYENVRFPPNGQLKLPVMPAEPFYDAEKGEKKYKSTKRMIEARGVEEVHTELIHEQYGLAAVSGGFIDSDDFKFIQDRINKNLIDNQFSVWRVDAPWLPRTKKAQGTRLGGGKGSIQKYVTPVRANRIILEVGGHITEIEAKAFLLYLCERFSFPVEFVSETMLAERRKKAEEERAMNKNGFNWGKVIKYNMQNCNSWLSSYDVAWKGKYR” as the sequence, how does the “soluble on expression in E. coli” value read?
Answer: not soluble

Question: For “SRLEGWLSLPVRNNTKKFGWVKKYVIVSSKKILFYDSEQDKEQSNPYMVLDIDKLFHVRPVTQTDVYRADAKEIPRIFQILYANEGISSAKNLLLLANSTEEQQKWVSRLVKKIPKK”, which “soluble on expression in E. coli” value is on record?
Answer: soluble

Question: For “MGSDKIHHHHHHENLYFQGMGTDKFNNIKIDKYENLINVLKTGDIFLCSGNYLVSKLIKKVSESMFSHTGIIVKWGEHTLIMESVEDDGVRIVPLEHYIKNYENSNNRYNGSLFIARHELLQNVNDDSEMIRNLIKVGFSLLNSGYDKNEIAQIVARIGLGIGRHEDNNEYICSEFVNECFKKIGVEFLTDSEGFIFPEHIAADHHVLPIAQIE”, which “soluble on expression in E. coli” value is on record?
Answer: soluble

Question: For “MAGDPMNEEQRKASSVDVLAERDKKAEKDYSKYFEHVYQPPNLKEAKKRGKQEVRYNRDFQIDEKYRGMGNERTFLIKTYGCQMNAHDTEVIAGILEALGYQATTDINTADVILINTCAIRENAENKVFSEIGNLKHLKKERPDILIGVCGCMSQEESVVNKILKSYQNVDMIFGTHNIHHLPEILEEAYLSKAMVVEVWSKEGDVIENLPKVREGNIKAWVNIMYGCDKFCTYCIVPFTRGKERSRRPEDIIDEVRELAREGYKEITLLGQNVNSYGKDLQDIEYDLGDLLQAISKIAIPRVRFTTSHPWDFTDHMIDVISEGGNIVPHIHLPVQSGNNAVLKIMGRKYTRESYLDLVKRIKDRIPNVALTTDIIVGYPNESEEQFEETLTLYDEVGFEHAYTYLYSQRDGTPAAKMKDNVPLNVKKERLQRLNKKVGHYSQIAMSKYEGQTVTVLCEGSSKKDDQVLAGYTDKNKLVNFKAPKEMIGKLVEVRIDEAKQYSLNGSFVKEVEPEMVIQLEHHHHHH”, which “soluble on expression in E. coli” value is on record?
Answer: soluble

Question: For “MDAEQLLKAITPEVYDRLVYAVETGRWPEGTTLSREQRDSCMQAVMLYQSKHNTEAQHMTVAAGGEISFKSKQELKKQFNTDESDIVRVNPNLD”, which “soluble on expression in E. coli” value is on record?
Answer: not soluble

Question: Which “soluble on expression in E. coli” value does the source give for “MISKDEILEIFDKYNKDEITIATLGSHTSLHILKGAKLEGFSTVCITMKGRDVPYKRFKVADKFIYVDNFSDIKNEEIQEKLRELNSIVVPHGSFIAYCGLDNVENSFLVPMFGNRRILRWESERSLEGKLLREAGLRVPKKYESPEDIDGTVIVKFPGARGGRGYFIASSTEEFYKKAEDLKKRGILTDEDIANAHIEEYVVGTNFCIHYFYSPLKDEVELLGMDKRYESNIDGLVRIPAKDQLEMNINPSYVITGNIPVVIRESLLPQVFEMGDKLVAKAKELVPPGMIGPFCLQSLCNENLELVVFEMSARVDGGTNSFMNGGPYSFLYNGEPLSMGQRIAREIKMALQLDMIDKIIS” here?
Answer: soluble

Question: Which “soluble on expression in E. coli” value does the source give for “MGSSHHHHHHDYDIPTTENLYFQGGGGGGMRAAVVYKTDGHVKRIEEALKRLEVEVELFNQPSEELENFDFIVSVGGDGTILRILQKLKRCPPIFGINTGRVGLLTHASPENFEVELKKAVEKFEVERFPRVSCSAMPDVLALNEIAVLSRKPAKMIDVALRVDGVEVDRIRCDGFIVATQIGSTGYAFSAGGPVVEPYLECFILIPIAPFRFGWKPYVVSMERKIEVIAEKAIVVADGQKSVDFDGEITIEKSEFPAVFFKNEKRFRNLFGKVRSIG” here?
Answer: soluble

Question: Which “soluble on expression in E. coli” value does the source give for “GPGSMRCIGMMEELVAEGCSAIKSRHDKTNEELGDLRLQVHQEYLEAFRRLYKTLGQLVYKKEKRLEEIDRNIRTTHIQLEFAIETFDPNAKKHSDAKKELYKLRAQVEEELEMLKDKMAQALEMFGPTEDALNQAGIEFVHPAEEVEDGNLTRRSKMVEYRAHLAKQEEVKIAAEREELKRSKTLQSQQYRGKTVQQITQ” here?
Answer: soluble

Question: For “GAMADRDRLRPPLDERSLRDQLIGAGSGWRQLDVVAQTGSTNADLLARAASGADIDGVVLIAEHQTAGRGRHGRGWAATARAQIILSVGVRVVDVPVQAWGWLSLAAGLAVLDSVAPLIAVPPAETGLKWPNDVLARGGKLAGILAEVAQPFVVLGVGLNVTQAPEEVDPDATSLLDLGVAAPDRNRIASRLLRELEARIIQWRNANPQLAADYRARSLTIGSRVRVELPGGQDVVGIARDIDDQGRLCLDVGGRTVVVSAGDVVHLR”, which “soluble on expression in E. coli” value is on record?
Answer: soluble

Question: For “MNEKVFRDPVHTYIHVNNQVIYDLINTKEFQRLRRIKQTSTTSFTFHGAEHS”, which “soluble on expression in E. coli” value is on record?
Answer: not soluble

Question: With “MSLAFNVAFRLDAGAEIGLGHLMRCLAIADRLRAAGAECHFLCHDLPAHLLPLLHAHHHHSLTTQDDAGPLPSLQPDWLVFDHYQIDHVVEQELAVHCDQLLVIDDLADRPHYCQLLLDQGPLRTAADYQPLIPADCRLLLGTDYALLRPAYRQLARQQTSQWQGGLICFGGADPAGACLTTLNSLACLPWPRTIQWTLVAGGANPFWPELEQRVAELPELKITLLRQSDQMAQLMNQHDFTIGAAGGMTWERACLGLPTLAVPIVDNQEGHHHHHH” as the sequence, how does the “soluble on expression in E. coli” value read?
Answer: not soluble

Question: Which “soluble on expression in E. coli” value does the source give for “GMDIINNRRSIRNYKGKKVEKEKIEKLLRAAMQAPSAGNQQPWEFIVLEDRENIDKLSNFSKYANSLKTAPLAIVLLADEEKMKISEMWEQDMAAAAENILLEAAYLDLGAVWLGAQPIEERVKNLKEMFNLKSNIKPFCVISVGYPENSENKFIDRFDAKRIHIEKY” here?
Answer: soluble

Question: With “MAGHVNGTCAPVIPKVGDEEDGVGQLVANLKEKGTNFVLLKKTPQILELQTILKDRSTNHSDFVFNADRLMRLVIEECLNHLPFTEHTVTTPTGFKYEGIQFNRGNCGVSLCRSGEAMEVSLRQCCRCIRIGKILIGDEQKVLYARLLPDITSRRVLLLYPTIGSGTTVCKAIEVLKEARVPDENIYLVSLFISPTGLKNITRKYPYITVVASDITSLYPNHFSTSYFGAV” as the sequence, how does the “soluble on expression in E. coli” value read?
Answer: not soluble
